# Laboratory results reported in patent publication US20040138119A1 (BURNHAM INSTITUTE, published 2004).
# B1: His6-pro-Caspase-9 (enzyme)
# chain: HHHHHHMDEADRRLLRRCRLRLVEELQVDQLWDALLSRELFRPHMIEDIQRAGSGSRRDQARQLIIDLETRGSQALPLFISCLEDTGQDMLASFLRTNRQAAKLSKPTLENLTPVVLRPEIRKPEVLRPETPRPVDIGSGGFGDVGALESLRGNADLAYILSMEPCGHCLIINNVNFCRESGLRTRTGSNIDCEKLRRRFSSLHFMVEVKGDLTAKKMVLALLELAQQDHGALDCCVVVILSHGCQASHLQFPGAVYGTDGCPVSVEKIVNIFNGTSCPSLGGKPKLFFIQACGGEQKDHGFEVASTSPEDESPGSNPEPDATPFQEGLRTFDQLDAISSLPTPSDIFVSYSTFPGFVSWRDPKSGSWYVETLDDIFEQWAHSEDLQSLLLRVANAVSVKGIYKQMPGCFNFLRKKLFFKTS
# notes: also called recombinant pro-Caspase-9
# B2: active His6-Caspase-9 (lacking CARD domain) (enzyme)
# chain: HHHHHHVGALESLRGNADLAYILSMEPCGHCLIINNVNFCRESGLRTRTGSNIDCEKLRRRFSSLHFMVEVKGDLTAKKMVLALLELAQQDHGALDCCVVVILSHGCQASHLQFPGAVYGTDGCPVSVEKIVNIFNGTSCPSLGGKPKLFFIQACGGEQKDHGFEVASTSPEDESPGSNPEPDATPFQEGLRTFDQLDAISSLPTPSDIFVSYSTFPGFVSWRDPKSGSWYVETLDDIFEQWAHSEDLQSLLLRVANAVSVKGIYKQMPGCFNFLRKKLFFKTS
# notes: also called active Caspase-9
# B3: His6-pro-Caspase-3 (enzyme)
# chain: HHHHHHMENTENSVDSKSIKNLEPKIIHGSESMDSGISLDNSYKMDYPEMGLCIIINNKNFHKSTGMTSRSGTDVDAANLRETFRNLKYEVRNKNDLTREEIVELMRDVSKEDHSKRSSFVCVLLSHGEEGIIFGTNGPVDLKKITNFFRGDRCRSLTGKPKLFIIQACRGTELDCGIETDSGVDDDMACHKIPVEADFLYAYSTAPGYYSWRNSKDGSWFIQSLCAMLKQYADKLEFMHILTRVNRKVATEFESFSFDATFHAKKQIPCIVSMLTKELYFYH
# B4: GST-CD40 (cytosolic domain) control protein (other, UniProt P25942 216-277, looked up, not shown: a dimerising Fc or GST)
# chain: KKVAKKPTNKAPHPKQEPQEINFPDDLPGSNTAAPVQETLHGCQPVTQEDGKESRISVQERQ
# notes: domain: cytosolic domain
# What was measured:
# GST-HBXIP [1] = target: T1, GST-HBXIP (human, UniProt O43504 1-91); assay: GST pull-down, anti-Caspase-9 immunoblot
# GST-HBXIP [2] = target: T1, GST-HBXIP; assay: GST pull-down, anti-Caspase-3 immunoblot
# [3] = target: HBXIP/Survivin complex (GST-HBXIP with purified untagged Survivin) (human, UniProt O43504 1-91; O15392 1-142); assay: GST pull-down, anti-Caspase-3 immunoblot
# His6-pro-Caspase-9 = target: B1; assay: GST pull-down in the presence of Survivin, anti-Caspase-9 immunoblot
binder,measurement,setting,value
B1,binding result,GST-HBXIP [1],no binding
B2,binding result,GST-HBXIP [1],no binding
B3,binding result,GST-HBXIP [2],no binding
same,binding result,[3],no binding
B4,binding result,His6-pro-Caspase-9,no binding
